Conditions: Aspergillus oryzae (strain ATCC 42149 / RIB 40), DSC, reversible: yes, whole UniProt chain shown; for Tm / heat capacity change of unfolding / unfolding enthalpy (calorimetric) / unfolding enthalpy (van 't Hoff): Thermal; for denaturant m value / denaturant midpoint (higher = more stable) / unfolding free energy: Urea, MOPS 30 mM
[1] = pH 7, PIPES 30 mM, MgCl2 0.01 M
[2] = pH 7, PIPES 30 mM, MgCl2 0.02 M
[3] = pH 7, PIPES 30 mM, MgCl2 0.03 M
[4] = pH 7, PIPES 30 mM, MgCl2 0.06 M
[5] = pH 7, PIPES 30 mM, MgCl2 0.10 M
[6] = pH 7, PIPES 30 mM, MgCl2 0.20 M
[7] = pH 7, PIPES 30 mM, MgCl2 0.40 M
[8] = pH 7, PIPES 30 mM, MgCl2 0.60 M
[9] = pH 7, PIPES 30 mM, MgCl2 0.80 M

B1: Guanyl-specific ribonuclease T1 wild type, P00651 (protein)
chain: MMYSKLLTLTTLLLPTALALPSLVERACDYTCGSNCYSSSDVSTAQAAGYQLHEDGETVGSNSYPHKYNNYEGFDFSVSSPYYEWPILSSGDVYSGGSPGADRVVFNENNQLAGVITHTGASGNNFVECT
pH 2.2, glycine 30 mM
  Tm: 45.4 °C
  heat capacity change of unfolding: 1.53 kcal/mol/K
  unfolding enthalpy (calorimetric): 89.6 kcal/mol
  unfolding enthalpy (van 't Hoff): 114 kcal/mol
pH 2.8, glycine 30 mM
  Tm: 49 °C
  heat capacity change of unfolding: 1.64 kcal/mol/K
  unfolding enthalpy (calorimetric): 95.3 kcal/mol
  unfolding enthalpy (van 't Hoff): 109 kcal/mol
pH 4, acetate 30 mM
  Tm: 56.7 °C
  heat capacity change of unfolding: 2.47 kcal/mol/K
  unfolding enthalpy (calorimetric): 102 kcal/mol
  unfolding enthalpy (van 't Hoff): 114 kcal/mol
pH 5, acetate 30 mM
  Tm: 56.5 °C
  heat capacity change of unfolding: 1.74 kcal/mol/K
  unfolding enthalpy (calorimetric): 106 kcal/mol
  unfolding enthalpy (van 't Hoff): 117 kcal/mol
pH 7, 14.9 °C
  denaturant m value: 1.26 kcal/mol/M
  denaturant midpoint (higher = more stable): 5.65 M
  unfolding free energy: 6.84 kcal/mol
pH 7, 21.1 °C
  denaturant m value: 1.1 kcal/mol/M
  denaturant midpoint (higher = more stable): 4.98 M
  unfolding free energy: 6.03 kcal/mol
pH 7, 23.05 °C
  denaturant m value: 1.2 kcal/mol/M
  denaturant midpoint (higher = more stable): 4.86 M
  unfolding free energy: 5.89 kcal/mol
pH 7, 25 °C
  denaturant m value: 1.2 kcal/mol/M
  denaturant midpoint (higher = more stable): 4.58 M
  unfolding free energy: 5.55 kcal/mol
pH 7, 27 °C
  denaturant m value: 1.2 kcal/mol/M
  denaturant midpoint (higher = more stable): 4.14 M
  unfolding free energy: 5.01 kcal/mol
pH 7, 29 °C
  denaturant m value: 1.27 kcal/mol/M
  denaturant midpoint (higher = more stable): 3.93 M
  unfolding free energy: 4.76 kcal/mol
pH 7, 34.75 °C
  denaturant m value: 1.22 kcal/mol/M
  denaturant midpoint (higher = more stable): 2.92 M
  unfolding free energy: 3.54 kcal/mol
pH 7, 40.1 °C
  denaturant m value: 1.28 kcal/mol/M
  denaturant midpoint (higher = more stable): 2.13 M
  unfolding free energy: 2.58 kcal/mol
pH 7, PIPES 30 mM, MgCl2 0 M
  Tm: 48.9 °C
  heat capacity change of unfolding: 1.35 kcal/mol/K
  unfolding enthalpy (calorimetric): 95.5 kcal/mol
  unfolding enthalpy (van 't Hoff): 118 kcal/mol
[1]
  Tm: 52.4 °C
  heat capacity change of unfolding: 1.22 kcal/mol/K
  unfolding enthalpy (calorimetric): 98.2 kcal/mol
  unfolding enthalpy (van 't Hoff): 117 kcal/mol
[2]
  Tm: 53.5 °C
  heat capacity change of unfolding: 0.86 kcal/mol/K
  unfolding enthalpy (calorimetric): 98.9 kcal/mol
  unfolding enthalpy (van 't Hoff): 117 kcal/mol
[3]
  Tm: 54 °C
  heat capacity change of unfolding: 0.94 kcal/mol/K
  unfolding enthalpy (calorimetric): 99.1 kcal/mol
  unfolding enthalpy (van 't Hoff): 119 kcal/mol
[4]
  Tm: 55.4 °C
  heat capacity change of unfolding: 1.02 kcal/mol/K
  unfolding enthalpy (calorimetric): 104 kcal/mol
  unfolding enthalpy (van 't Hoff): 120 kcal/mol
[5]
  Tm: 56.6 °C
  heat capacity change of unfolding: 1.11 kcal/mol/K
  unfolding enthalpy (calorimetric): 104 kcal/mol
  unfolding enthalpy (van 't Hoff): 121 kcal/mol
[6]
  Tm: 58.1 °C
  heat capacity change of unfolding: 0.71 kcal/mol/K
  unfolding enthalpy (calorimetric): 104 kcal/mol
  unfolding enthalpy (van 't Hoff): 122 kcal/mol
[7]
  Tm: 60.1 °C
  heat capacity change of unfolding: 1.22 kcal/mol/K
  unfolding enthalpy (calorimetric): 108 kcal/mol
  unfolding enthalpy (van 't Hoff): 122 kcal/mol
[8]
  Tm: 61.9 °C
  heat capacity change of unfolding: 1.07 kcal/mol/K
  unfolding enthalpy (calorimetric): 109 kcal/mol
  unfolding enthalpy (van 't Hoff): 125 kcal/mol
[9]
  Tm: 63 °C
  heat capacity change of unfolding: 1.14 kcal/mol/K
  unfolding enthalpy (calorimetric): 111 kcal/mol
  unfolding enthalpy (van 't Hoff): 121 kcal/mol
pH 7, PIPES 30 mM, NaCl 0 M
  Tm: 48.9 °C
  heat capacity change of unfolding: 1.35 kcal/mol/K
  unfolding enthalpy (calorimetric): 95.5 kcal/mol
  unfolding enthalpy (van 't Hoff): 118 kcal/mol
pH 7, PIPES 30 mM, NaCl 0.05 M
  Tm: 51 °C
  heat capacity change of unfolding: 0.93 kcal/mol/K
  unfolding enthalpy (calorimetric): 99.5 kcal/mol
  unfolding enthalpy (van 't Hoff): 120 kcal/mol
pH 7, PIPES 30 mM, NaCl 0.10 M
  Tm: 52.1 °C
  heat capacity change of unfolding: 1.6 kcal/mol/K
  unfolding enthalpy (calorimetric): 101 kcal/mol
  unfolding enthalpy (van 't Hoff): 119 kcal/mol
pH 7, PIPES 30 mM, NaCl 0.20 M
  Tm: 53.9 °C
  heat capacity change of unfolding: 1.31 kcal/mol/K
  unfolding enthalpy (calorimetric): 105 kcal/mol
  unfolding enthalpy (van 't Hoff): 121 kcal/mol
pH 7, PIPES 30 mM, NaCl 0.40 M
  Tm: 56.5 °C
  heat capacity change of unfolding: 1.4 kcal/mol/K
  unfolding enthalpy (calorimetric): 107 kcal/mol
  unfolding enthalpy (van 't Hoff): 121 kcal/mol
pH 7, PIPES 30 mM, NaCl 0.60 M
  Tm: 58.5 °C
  heat capacity change of unfolding: 1.31 kcal/mol/K
  unfolding enthalpy (calorimetric): 111 kcal/mol
  unfolding enthalpy (van 't Hoff): 122 kcal/mol
pH 7, PIPES 30 mM, NaCl 0.80 M
  Tm: 60.2 °C
  heat capacity change of unfolding: 2.11 kcal/mol/K
  unfolding enthalpy (calorimetric): 111 kcal/mol
  unfolding enthalpy (van 't Hoff): 124 kcal/mol
pH 7, PIPES 30 mM, NaCl 1.20 M
  Tm: 63.2 °C
  heat capacity change of unfolding: 1.42 kcal/mol/K
  unfolding enthalpy (calorimetric): 112 kcal/mol
  unfolding enthalpy (van 't Hoff): 126 kcal/mol
pH 7, PIPES 30 mM, NaCl 1.60 M
  Tm: 65.6 °C
  heat capacity change of unfolding: 1.37 kcal/mol/K
  unfolding enthalpy (calorimetric): 115 kcal/mol
  unfolding enthalpy (van 't Hoff): 125 kcal/mol
pH 7, PIPES 30 mM
  Tm: 48.9 °C
  heat capacity change of unfolding: 1.35 kcal/mol/K
  unfolding enthalpy (calorimetric): 95.5 kcal/mol
  unfolding enthalpy (van 't Hoff): 119 kcal/mol
pH 7.5, PIPES 30 mM
  Tm: 46.7 °C
  heat capacity change of unfolding: 1.71 kcal/mol/K
  unfolding enthalpy (calorimetric): 93.2 kcal/mol
  unfolding enthalpy (van 't Hoff): 121 kcal/mol
pH 8, PIPES 30 mM
  Tm: 45.8 °C
  heat capacity change of unfolding: 0.88 kcal/mol/K
  unfolding enthalpy (calorimetric): 91.6 kcal/mol
  unfolding enthalpy (van 't Hoff): 116 kcal/mol
pH 9, glycine 30 mM
  Tm: 40.7 °C
  heat capacity change of unfolding: 0.42 kcal/mol/K
  unfolding enthalpy (calorimetric): 76.5 kcal/mol
  unfolding enthalpy (van 't Hoff): 114 kcal/mol
pH 10, glycine 30 mM
  Tm: 39.4 °C
  unfolding enthalpy (calorimetric): 76.9 kcal/mol
  unfolding enthalpy (van 't Hoff): 104 kcal/mol

From FireProtDB (doi:10.1021/bi00135a019)
